{"source": "patent US20140303084A1", "about": "(Biogen, published 2014)", "note": "Bridge positions count the residues as written; N and C are the ends. Square brackets hold non-standard residues; d marks the D form. Primed or numbered codes have the meaning given here. Side chains are listed from the residue outwards. Ends that are not written are not given here. * marks the point of attachment. :N‑O‑CH2‑CO‑PEG27 = oxime linkage (=N-O-CH2-CO-) to a PEG27 spacer; Biotin = O=C1N[C@H]2[C@H](CS[C@H]2CCCCC(=O)*)N1; PEG2(3) = PEG2 spacer carrying biotin on Lys; Palmitoyl = CCCCCCCCCCCCCCCC(=O)*; NMeL = CN[C@@H](CC(C)C)C(=O)O; PEG16″ = not defined here; PEG2″ = not defined here; PEG16′ = PEG-16 spacer", "data": [{"target": "human Factor IXa (human, UniProt P00740 47-191; P00740 227-461)", "test": "cell-based or functional assay", "units": {"EC50 [µM], FXa generation assay": "µM"}, "values": [{"binder": "[dR]RAAGKLTCLASYCWLFATGIA (not fully specified (C-terminus); printed as rRAAGKLTCLASYCWLFATGIA; cysteine pairing not given here)", "note": "[rRAAGKLTCLASYCWLFATGIA]", "EC50 [µM], FXa generation assay": "< 0.5"}, {"binder": "VSGTGKLTCLASYCWLFQLGSF", "EC50 [µM], FXa generation assay": "< 0.5"}, {"binder": "FPIQHKLTCLSSDCWLFPSHSY", "EC50 [µM], FXa generation assay": "> 50"}, {"binder": "RGRSAKLTCLASYCWLFFGVIL", "EC50 [µM], FXa generation assay": "< 0.5"}, {"binder": "GASGRRRTCVASYCLLFQSGLP", "EC50 [µM], FXa generation assay": "> 25"}, {"binder": "KK[dK][NMeL]TCLASYCWLF (not fully specified; printed as KK-k-MeLeu-TCLASYCWLF; cysteine pairing not given here)", "note": "[KK-k-MeLeu-TCLASYCWLF]", "EC50 [µM], FXa generation assay": "> 10"}, {"binder": "GDSGRKLSCLGSYCWLSVQFMA", "EC50 [µM], FXa generation assay": "< 0.5"}, {"binder": "ARAPGKLQCLASYCWLFWTGIA", "EC50 [µM], FXa generation assay": "< 0.5"}, {"binder": "[dK][NMeL]TCLASYCWLA (not fully specified (C-terminus); printed as k-MeLeu-TCLASYCWLA; cysteine pairing not given here)", "note": "[k-MeLeu-TCLASYCWLA]", "EC50 [µM], FXa generation assay": "> 1"}, {"binder": "RHSNHNLTCQASYCWLLPAGLQ", "EC50 [µM], FXa generation assay": "> 1"}, {"binder": "VSGTGRLTCVASYCWMFQLGSF", "EC50 [µM], FXa generation assay": "< 0.5"}, {"binder": "HLGSPKLTCGASQCWLLNHEVS", "EC50 [µM], FXa generation assay": "> 50"}, {"binder": "HDSLDQLTCLASVCQLASMGAR", "EC50 [µM], FXa generation assay": "> 1"}, {"binder": "{Palmitoyl-(PEG)27-(PEG)27}-KLTCLASYCWLF (disulfide 4-9 (inferred); not fully specified (C-terminus); printed as Palmitoyl-(PEG)27(PEG)27-KLTCLASYCWLF)", "note": "[Palmitoyl-(PEG)27(PEG)27-KLTCLASYCWLF]", "EC50 [µM], FXa generation assay": "> 20"}, {"binder": "VARASKVECLASYCQLFVGGEV", "EC50 [µM], FXa generation assay": "> 1"}, {"binder": "HGLADRLTCLSSDCWLQPFGTS", "EC50 [µM], FXa generation assay": "> 50"}, {"binder": "KLLKLLLKLLLKLLK[dK][NMeL]TCLASYCWLF (not fully specified; printed as KLLKLLLKLLLKLLK-k-MeLeu-TCLASYCWLF; cysteine pairing not given here)", "note": "[KLLKLLLKLLLKLLK-k-MeLeu-TCLASYCWLF]", "EC50 [µM], FXa generation assay": "< 0.5"}, {"binder": "RQLWNKLTCLASYCALIGLSGT", "EC50 [µM], FXa generation assay": "> 1"}, {"binder": "RRAAGKLQCLASYCWLFWTGIA", "EC50 [µM], FXa generation assay": "< 0.5"}, {"binder": "KRYVYRQMCLVSACWLLQLGYA", "EC50 [µM], FXa generation assay": "< 0.5"}, {"binder": "RGRSAKLRCLASYCWLFFTVIL", "EC50 [µM], FXa generation assay": "< 0.5"}, {"binder": "R[dK][NMeL]TCLASYCWLF (cysteine pairing not given here)", "note": "[R-k-MeLeu-TCLASYCWLF]", "EC50 [µM], FXa generation assay": "> 1"}, {"binder": "DAKVAKLRCLGSQCWLLQYAPG", "EC50 [µM], FXa generation assay": "< 0.5"}, {"binder": "[dK][NMeL]TCLASYCQLF (not fully specified (C-terminus); printed as k-MeLeu-TCLASYCQLF; cysteine pairing not given here)", "note": "[k-MeLeu-TCLASYCQLF]", "EC50 [µM], FXa generation assay": "> 1"}, {"binder": "KLTCLASYCWLFG (cysteine pairing not given here; also: dimer: two copies joined by ═N-O-(CH2)3-O-N═ (linker 1) at residue 13)", "note": "[(KLTCLASYCWLFG)2═N-O-(CH2)3-O-N═]", "EC50 [µM], FXa generation assay": "< 0.5"}, {"binder": "[dR]RAPGKLTCLASYCWLFWTGIA[PEG16′]K([PEG2(3)-Biotin])[PEG16′]K(Palmitoyl) (cysteine pairing not given here)", "note": "[rRAPGKLTCLASYCWLFWTGIA-PEG16-Lys(PEG2-Biotin)-PEG16-Lys(palmitoyl)]", "EC50 [µM], FXa generation assay": "> 1"}, {"binder": "SRQSDKPTCLAISCSLLTSNVR", "EC50 [µM], FXa generation assay": "> 50"}, {"binder": "KGAYQKLTCLASYCLLFLLTAQ", "EC50 [µM], FXa generation assay": "< 0.5"}, {"binder": "RRAPGKLQCLASYCWLFATAIA", "EC50 [µM], FXa generation assay": "< 0.5"}, {"binder": "Ac-K[dK][NMeL]TCLASYCWLF (cysteine pairing not given here)", "note": "[Ac-K-k-MeLeu-TCLASYCWLF]", "EC50 [µM], FXa generation assay": "< 0.5"}, {"binder": "RAAPGKLQCLASYCWLFWTGIA", "EC50 [µM], FXa generation assay": "< 0.5"}, {"binder": "KKLTCLASYCWLF (not fully specified; D-Lys 1, D-Lys 2, MeLeu 3)", "note": "[k-k-MeLeu-TCLASYCWLF]", "EC50 [µM], FXa generation assay": "> 2.5"}, {"binder": "VSGTGRLTCVASYCWMFQLGIF", "EC50 [µM], FXa generation assay": "< 0.5"}, {"binder": "[dR]RAPGKLTCLASYCWLFWTGIA[PEG16″]K([PEG2″-Biotin])[PEG16″] (cysteine pairing not given here)", "note": "[rRAPGKLTCLASYCWLFWTGIA-PEG16-Lys(PEG2-Biotin)-PEG16]", "EC50 [µM], FXa generation assay": "< 0.5"}, {"binder": "{Palmitoyl-(PEG)27}-KLTCLASYCWLF (cysteine pairing not given here)", "note": "[Palmitoyl-(PEG)27-KLTCLASYCWLF]", "EC50 [µM], FXa generation assay": "> 1"}, {"binder": "QAKMLKLTCLASYCWLFWVTRS", "EC50 [µM], FXa generation assay": "< 0.5"}, {"binder": "RRAPAKLQCLASYCWLFWTGIA", "EC50 [µM], FXa generation assay": "< 0.5"}, {"binder": "KKK[dK][NMeL]TCLASYCWLF (not fully specified; printed as KKK-k-MeLeu-TCLASYCWLF; cysteine pairing not given here)", "note": "[KKK-k-MeLeu-TCLASYCWLF]", "EC50 [µM], FXa generation assay": "> 20"}, {"binder": "[dK][NMeL]TCLASYCWLF (not fully specified (residue 8); cysteine pairing not given here)", "note": "[k-MeLeu-TCLAS-(Y-OMe)-CWLF]", "EC50 [µM], FXa generation assay": "< 0.5"}, {"binder": "K[dK][NMeL]TCLASYCWLF (not fully specified; printed as K-k-MeLeu-TCLASYCWLF; cysteine pairing not given here)", "note": "[K-k-MeLeu-TCLASYCWLF]", "EC50 [µM], FXa generation assay": "> 1"}, {"binder": "RGRSAKLRCLASYCWLFFGVIL", "EC50 [µM], FXa generation assay": "< 0.5"}, {"binder": "HQQRRKLTCLAGYCWLFVLGPS (not fully specified; cysteine pairing not given here)", "EC50 [µM], FXa generation assay": "> 1"}, {"binder": "RGSVHQPTCLGGYCGRLHSSWV", "EC50 [µM], FXa generation assay": "> 50"}, {"binder": "[PEG16″]K([PEG2″-Biotin])[PEG16″][dR]RAPGKLTCLASYCWLFWTGIA (cysteine pairing not given here)", "note": "[PEG16-Lys(PEG2-Biotin)-PEG16-rRAPGKLTCLASYCWLFWTGIA]", "EC50 [µM], FXa generation assay": "> 1"}, {"binder": "RSTVSQMRCLASYCWLFPALVS", "EC50 [µM], FXa generation assay": "< 0.5"}, {"binder": "QEQPAKLTCRGSYCWLFKRGDQ", "EC50 [µM], FXa generation assay": "> 50"}, {"binder": "NGGMQKPACLASQCWLFANPLP", "EC50 [µM], FXa generation assay": "> 1"}, {"binder": "SKWEHQRGCLANNCWLFTLAPG", "EC50 [µM], FXa generation assay": "> 50"}, {"binder": "H-KLTCLASYCWLFG[:N‑O‑CH2‑CO‑PEG27]CNPRGDY(OEt)RC (numbers in words are those of the source; cysteine pairing not given here; also: oxime link =N-O-CH2-CO-PEG27 between G13 and C14, Y20 as Y-OEt)", "note": "[H3N-KLTCLASYCWLFG═N-O-CH2-CO-PEG27-CNPRGD-(Y-OEt)-RC]", "EC50 [µM], FXa generation assay": "> 50"}]}]}
